Results from patent publication US20090215992A1 (published 2009).

Target: T1, mouse IL-1α (mouse, UniProt P01582 115-270)
T1 sequence (looked up): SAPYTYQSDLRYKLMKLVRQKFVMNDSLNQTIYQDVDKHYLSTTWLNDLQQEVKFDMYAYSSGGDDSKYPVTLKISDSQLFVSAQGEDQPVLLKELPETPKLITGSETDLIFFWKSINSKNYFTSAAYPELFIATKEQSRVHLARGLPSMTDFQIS
Experiment: cell-based or functional assay

fold decrease of potency against the parental anti-mIL-1α mAb: 10 fold
B1: mIL-1α/β DVD-Ig (bispecific antibody, mouse IgG2a, kappa)
heavy: EVQLQQSGPELVKPGTSVKMSCKTSGYTFTSYVMHWVKQKPGQGLEWIGYIIPYNDNTKYNEKFKGKATLTSDKSSSTAYMELSSLTSEDSAVYYCARRNEYYGSSFFDYWGQGTTLTVSSAKTTAPSVYPLAPQVILKESGPGILQPSQTLSLTCSFSGFSLSTYGTAVNWIRQPSGKGLEWLAQIGSDDRKLYNPFLKSRITLSEDTSNSQVFLKITSVDTEDSATYYCANGVMEYWGLGTSVTVSSAKTTAPSVYPLAPVCGDTTGSSVTLGCLVKGYFPEPVTLTWNSGSLSSGVHTFPAVLQSDLYTLSSSVTVTSSTWPSQSITCNVAHPASSTKVDKKIEPRGPTIKPCPPCKCPAPNLLGGPSVFIFPPKIKDVLMISLSPIVTCVVVDVSEDDPDVQISWFVNNVEVHTAQTQTHREDYNSTLRVVSALPIQHQDWMSGKEFKCKVNNKDLPAPIERTISKPKGSVRAPQVYVLPPPEEEMTKKQVTLTCMVTDFMPEDIYVEWTNNGKTELNYKNTEPVLDSDGSYFMYSKLRVEKKNWVERNSYSCSVVHEGLHNHHTTKSFSRTPGK
light: DIQMTQSPASLSASVGETVTITCRGSGILHNYLVWYQQKQGKSPQLLVYSAKILADGVPSRFSGSGSGTQYSLKINSLQPEDFGSYYCQHFWSTPFTFGSGTKLEIKRADAAPTVSIFPPSIVMTQTPKFLLVSAGDRVTITCKASQSVNHDVAWYQQMPGQSPKLLIYFASNRYTGVPDRFTGSGYGTDFTFTISTVQAEDLAVYFCQQDYSSPYTFGGGTKLEIKRADAAPTVSIFPPSSEQLTSGGASVVCFLNNFYPKDINVKWKIDGSERQNGVLNSWTDQDSKDSTYSMSSTLTLTKDEYERHNSYTCEATHKTSTSPIVKSFNRNEC
